Sequences and labels used below:
T1: S100A9(C3S), subunit of CP-Ser (human, UniProt P06702 2-114, C3S)
T1 sequence (looked up): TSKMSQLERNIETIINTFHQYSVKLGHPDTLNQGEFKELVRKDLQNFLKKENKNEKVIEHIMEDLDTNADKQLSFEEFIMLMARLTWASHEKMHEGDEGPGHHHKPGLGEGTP

B1: CP-Ser, S100A8(C42S)/S100A9(C3S) heterodimer of human calprotectin (complex)
chain 1: MLTELEKALNSIIDVYHKYSLIKGNFHAVYRDDLKKLLETESPQYIRKKGADVWFKELDINTDGAVNFQEFLILVIKMGVAAHKKSHEESHKE
chain 2: T1 sequence (looked up)
B2: S100A9, subunit of native CP (natural protein, human, UniProt P06702 2-114, looked up)
chain: T1 sequence (looked up) with S2C
B3: S100A8, subunit of native CP (natural protein, human, UniProt P05109 1-93, looked up)
chain: B1 chain 1 with S42C
B4: CP-Ser M81A variant, S100A8(C42S)/S100A9(C3S)(M81A) (complex, human)
chain 1: B1 chain 1
chain 2: T1 sequence (looked up) with M80A
B5: S100A8(C42S), subunit of CP-Ser (natural protein, human, UniProt P05109 1-93, looked up)
chain: B1 chain 1

Series [1] concerns the molecule itself. Nature of the series: SEC. (In general: In gel filtration, larger molecules generally elute earlier.)
Series [2] concerns the molecule itself. Nature of the series: cross-linking.
For series [3], the target named is B2. As to the kind of experiment: cross-linking.
Series [4] addresses T1, S100A9(C3S), subunit of CP-Ser. Nature of the series: anion exchange chromatography.

Changes are numbered by the printed parent chain. Numbers in names are those of the source.

As to B1, the binding result in series [1] is listed as “binds”. B2: in series [2], the binding result was “binds”. As to B3, in series [3], the binding result was “binds”. For B4, the binding result in series [1] was “binds”. For the molecule B5, the binding result in series [4] is given as “binds”.

The values are drawn from publication PMC6534964 (Journal of the American Chemical Society, 2018).
